Reference: PMC10849636 (bioRxiv, 2024)

Target: the molecule itself
Assay: SEC

B1: full-length WT HIV-1 integrase (IN) (enzyme)
chain: FLDGIDKAQEEHEKYHSNWRAMASDFNLPPVVAKEIVASCDKCQLKGEAMHGQVDCSPGIWQLDCTHLEGKVILVAVHVASGYIEAEVIPAETGQETAYFLLKLAGRWPVKTVHTDNGSNFTSTTVKAACWWAGIKQEFGIPYNPQSQGVIESMNKELKKIIGQVRDQAEHLKTAVQMAVFIHNFKRKGGIGGYSAGERIVDIIATDIQTKELQKQITKIQNFRVYYRDSRDPVWKGPAKLLWKGEGAVVIQDNSDIKVVPRRKAKIIRDYGKQMAGDDCVASRQDED
B1: binds.
